T1: 1xMBD-GFP (UniProt Q9Z2E2 1-75)
T1 sequence: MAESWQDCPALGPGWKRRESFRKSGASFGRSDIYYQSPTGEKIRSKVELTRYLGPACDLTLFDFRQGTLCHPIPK

B1: o_o_m/m_m_m (dsDNA)
DNA 1: TTTGCGGTCCGCTGCCCGACCC
DNA 2: GGGTCGGGCAGCGGACCGCAAA
modifications: strand 1 5mC17; strand 2 5mC5,5mC12,5mC17
B2: o_m_o/o_o_o (dsDNA)
DNA 1: TTTGCGGTCCGCTGCCCGACCC
DNA 2: GGGTCGGGCAGCGGACCGCAAA
modifications: strand 1 5mC10
B3: m_o_o/m_m_m (dsDNA)
DNA 1: TTTGCGGTCCGCTGCCCGACCC
DNA 2: GGGTCGGGCAGCGGACCGCAAA
modifications: strand 1 5mC5; strand 2 5mC5,5mC12,5mC17
B4: o_o_o/m_m_m (dsDNA)
DNA 1: TTTGCGGTCCGCTGCCCGACCC
DNA 2: GGGTCGGGCAGCGGACCGCAAA
modifications: strand 2 5mC5,5mC12,5mC17
B5: m_o_o*/m_o_o (dsDNA)
DNA 1: GTAGTTTGCGGTCCGCTGCCCGACC
DNA 2: GGGTCGGGCAGCGGACCGCAAA
modifications: strand 1 5mC9; strand 2 5mC17
B6: o_o_o/m_o_o (dsDNA)
DNA 1: TTTGCGGTCCGCTGCCCGACCC
DNA 2: GGGTCGGGCAGCGGACCGCAAA
modifications: strand 2 5mC17
B7: o_o_o_o/o_o_o_o (dsDNA)
DNA 1: GAAGTCAACAGGACGGACGCCGCGCAA
DNA 2: CTCTTTCTTTGCGCGGCGTCCGTCCTGTTGACTTCCTCT
B8: o_m_o_o/o_o_m_m (dsDNA)
DNA 1: GAAGTCAACAGGACGGACGCCGCGCAA
DNA 2: B7 DNA 2
modifications: strand 1 5mC18; strand 2 5mC12,5mC14
B9: o_o_o_o/m_m_o_o (dsDNA)
DNA 1: GAAGTCAACAGGACGGACGCCGCGCAA
DNA 2: B7 DNA 2
modifications: strand 2 5mC17,5mC21
B10: o_o_o_m/o_m_m_o (dsDNA)
DNA 1: GAAGTCAACAGGACGGACGCCGCGCAA
DNA 2: B7 DNA 2
modifications: strand 1 5mC23; strand 2 5mC14,5mC17
B11: o_o_m_o/o_o_m_o (dsDNA)
DNA 1: GAAGTCAACAGGACGGACGCCGCGCAA
DNA 2: B7 DNA 2
modifications: strand 1 5mC21; strand 2 5mC14
B12: o_o_o_o/o_o_m_m (dsDNA)
DNA 1: GAAGTCAACAGGACGGACGCCGCGCAA
DNA 2: B7 DNA 2
modifications: strand 2 5mC12,5mC14
B13: m_o_o_o/o_o_m_o (dsDNA)
DNA 1: GAAGTCAACAGGACGGACGCCGCGCAA
DNA 2: B7 DNA 2
modifications: strand 1 5mC14; strand 2 5mC14
B14: o_o_m_o/o_m_m_o (dsDNA)
DNA 1: GAAGTCAACAGGACGGACGCCGCGCAA
DNA 2: B7 DNA 2
modifications: strand 1 5mC21; strand 2 5mC14,5mC17
B15: o_o_o_o/o_o_m_o (dsDNA)
DNA 1: GAAGTCAACAGGACGGACGCCGCGCAA
DNA 2: B7 DNA 2
modifications: strand 2 5mC14
B16: o_m_o_o/o_m_m_o (dsDNA)
DNA 1: GAAGTCAACAGGACGGACGCCGCGCAA
DNA 2: B7 DNA 2
modifications: strand 1 5mC18; strand 2 5mC14,5mC17
B17: o_o_o_m/o_o_o_o (dsDNA)
DNA 1: GAAGTCAACAGGACGGACGCCGCGCAA
DNA 2: B7 DNA 2
modifications: strand 1 5mC23
B18: o_o_o_o/o_m_m_o (dsDNA)
DNA 1: GAAGTCAACAGGACGGACGCCGCGCAA
DNA 2: B7 DNA 2
modifications: strand 2 5mC14,5mC17
B19: m_o_o_o/o_o_m_m (dsDNA)
DNA 1: GAAGTCAACAGGACGGACGCCGCGCAA
DNA 2: B7 DNA 2
modifications: strand 1 5mC14; strand 2 5mC12,5mC14
B20: o_o_m_o/o_o_m_m (dsDNA)
DNA 1: GAAGTCAACAGGACGGACGCCGCGCAA
DNA 2: B7 DNA 2
modifications: strand 1 5mC21; strand 2 5mC12,5mC14
B21: m_o_o_o/m_m_o_o (dsDNA)
DNA 1: GAAGTCAACAGGACGGACGCCGCGCAA
DNA 2: B7 DNA 2
modifications: strand 1 5mC14; strand 2 5mC17,5mC21
B22: o_o_m_o/o_o_o_o (dsDNA)
DNA 1: GAAGTCAACAGGACGGACGCCGCGCAA
DNA 2: B7 DNA 2
modifications: strand 1 5mC21
B23: o_o_o_m/o_o_m_o (dsDNA)
DNA 1: GAAGTCAACAGGACGGACGCCGCGCAA
DNA 2: B7 DNA 2
modifications: strand 1 5mC23; strand 2 5mC14
B24: o_o_o_m/m_m_o_o (dsDNA)
DNA 1: GAAGTCAACAGGACGGACGCCGCGCAA
DNA 2: B7 DNA 2
modifications: strand 1 5mC23; strand 2 5mC17,5mC21
B25: m_o_o_o/o_m_m_o (dsDNA)
DNA 1: GAAGTCAACAGGACGGACGCCGCGCAA
DNA 2: B7 DNA 2
modifications: strand 1 5mC14; strand 2 5mC14,5mC17
B26: m_o_o_o/o_o_o_o (dsDNA)
DNA 1: GAAGTCAACAGGACGGACGCCGCGCAA
DNA 2: B7 DNA 2
modifications: strand 1 5mC14
B27: o_o_m_o/m_m_o_o (dsDNA)
DNA 1: GAAGTCAACAGGACGGACGCCGCGCAA
DNA 2: B7 DNA 2
modifications: strand 1 5mC21; strand 2 5mC17,5mC21
B28: o_m_o_o/o_o_o_o (dsDNA)
DNA 1: GAAGTCAACAGGACGGACGCCGCGCAA
DNA 2: B7 DNA 2
modifications: strand 1 5mC18
B29: o_m_o_o/m_m_o_o (dsDNA)
DNA 1: GAAGTCAACAGGACGGACGCCGCGCAA
DNA 2: B7 DNA 2
modifications: strand 1 5mC18; strand 2 5mC17,5mC21
B30: o_o_o_m/o_o_m_m (dsDNA)
DNA 1: GAAGTCAACAGGACGGACGCCGCGCAA
DNA 2: B7 DNA 2
modifications: strand 1 5mC23; strand 2 5mC12,5mC14
B31: o_m_o_o/o_o_m_o (dsDNA)
DNA 1: GAAGTCAACAGGACGGACGCCGCGCAA
DNA 2: B7 DNA 2
modifications: strand 1 5mC18; strand 2 5mC14
B32: o_o_m/o_o_o (dsDNA)
DNA 1: TTTGCGGTCCGCTGCCCGACCC
DNA 2: GGGTCGGGCAGCGGACCGCAAA
modifications: strand 1 5mC17
B33: o_m_m/m_o_m (dsDNA)
DNA 1: TTTGCGGTCCGCTGCCCGACCC
DNA 2: GGGTCGGGCAGCGGACCGCAAA
modifications: strand 1 5mC10,5mC17; strand 2 5mC5,5mC17
B34: o_m_o/m_m_m (dsDNA)
DNA 1: TTTGCGGTCCGCTGCCCGACCC
DNA 2: GGGTCGGGCAGCGGACCGCAAA
modifications: strand 1 5mC10; strand 2 5mC5,5mC12,5mC17
B35: o_m_o/m_o_o (dsDNA)
DNA 1: TTTGCGGTCCGCTGCCCGACCC
DNA 2: GGGTCGGGCAGCGGACCGCAAA
modifications: strand 1 5mC10; strand 2 5mC17
B36: o_m_m/o_o_o (dsDNA)
DNA 1: TTTGCGGTCCGCTGCCCGACCC
DNA 2: GGGTCGGGCAGCGGACCGCAAA
modifications: strand 1 5mC10,5mC17
B37: m_o_o*/m_m_m (dsDNA)
DNA 1: GTAGTTTGCGGTCCGCTGCCCGACC
DNA 2: GGGTCGGGCAGCGGACCGCAAA
modifications: strand 1 5mC9; strand 2 5mC5,5mC12,5mC17
B38: o_m_m/m_m_m (dsDNA)
DNA 1: TTTGCGGTCCGCTGCCCGACCC
DNA 2: GGGTCGGGCAGCGGACCGCAAA
modifications: strand 1 5mC10,5mC17; strand 2 5mC5,5mC12,5mC17
B39: m_o_o/m_o_o (dsDNA)
DNA 1: TTTGCGGTCCGCTGCCCGACCC
DNA 2: GGGTCGGGCAGCGGACCGCAAA
modifications: strand 1 5mC5; strand 2 5mC17

The binders below were run against T1, 1xMBD-GFP (assay: SPR).

Q: Which Kd does the source give for B1 here?
A: 0.209 ± 0.002 µM

Molecular target: T1, 1xMBD-GFP
Test: SPR
Remark: another data set of the same source

Q: For B1, which Kd is on record?
A: 0.189 ± 0.001 µM

Molecular target: T1, 1xMBD-GFP
Test: SPR
Remark: another data set of the same source

Q: Which Kd does the source give for B2 here?
A: 10 ± 0.1 µM

Q: With B3 as the binder, how does the Kd read?
A: 2.2 ± 0.02 µM

Q: For B4, which Kd is on record?
A: 4.6 ± 0.2 µM

Q: How did the Kd turn out when B5 was run?
A: 0.87 ± 0.01 µM

Q: How did the Kd turn out when B6 was run?
A: 48 ± 2 µM

Q: How did the Kd turn out when B7 was run?
A: 37 ± 2 µM

Q: How did the Kd turn out when B8 was run?
A: 2.4 ± 0.04 µM

Q: B9 was tested. Which Kd did it give?
A: 7.5 ± 0.2 µM

Q: For B10, which Kd is on record?
A: 1.94 ± 0.02 µM

Q: B11 was tested. Which Kd did it give?
A: 0.106 ± 0.001 µM

Q: B12 was tested. Which Kd did it give?
A: 4.5 ± 0.1 µM

Q: B13 was tested. Which Kd did it give?
A: 3.51 ± 0.03 µM

Q: For B14, which Kd is on record?
A: 0.158 ± 0.003 µM

Q: For B15, which Kd is on record?
A: 3.66 ± 0.05 µM

Q: B16 was tested. Which Kd did it give?
A: 0.315 ± 0.004 µM

Q: How did the Kd turn out when B17 was run?
A: 7.6 ± 0.2 µM

Q: How did the Kd turn out when B18 was run?
A: 3.19 ± 0.03 µM

Q: With B19 as the binder, how does the Kd read?
A: 3.11 ± 0.03 µM

Q: For B20, which Kd is on record?
A: 0.156 ± 0.002 µM

Q: For B21, which Kd is on record?
A: 0.561 ± 0.006 µM

Q: Which Kd does the source give for B22 here?
A: 5.86 ± 0.09 µM

Q: How did the Kd turn out when B23 was run?
A: 2.65 ± 0.03 µM

Q: How did the Kd turn out when B24 was run?
A: 3.94 ± 0.06 µM

Q: With B25 as the binder, how does the Kd read?
A: 2.4 ± 0.09 µM

Q: B26 was tested. Which Kd did it give?
A: 16.8 ± 0.5 µM

Q: With B27 as the binder, how does the Kd read?
A: 4.97 ± 0.07 µM

Q: How did the Kd turn out when B28 was run?
A: 14.7 ± 0.4 µM

Q: B29 was tested. Which Kd did it give?
A: 0.377 ± 0.007 µM

Q: Which Kd does the source give for B30 here?
A: 0.281 ± 0.007 µM

Q: B31 was tested. Which Kd did it give?
A: 3.12 ± 0.04 µM

Q: For B32, which Kd is on record?
A: 6.8 ± 0.1 µM

Q: Which Kd does the source give for B33 here?
A: 0.169 ± 0.002 µM

Q: How did the Kd turn out when B34 was run?
A: 0.398 ± 0.002 µM

Q: For B35, which Kd is on record?
A: 8 ± 0.1 µM

Q: B36 was tested. Which Kd did it give?
A: 3.09 ± 0.02 µM

Q: How did the Kd turn out when B37 was run?
A: 0.534 ± 0.004 µM

Q: Which Kd does the source give for B38 here?
A: 0.181 ± 0.001 µM

Q: With B39 as the binder, how does the Kd read?
A: 4.2 ± 0.04 µM
